Residue numbers refer to the chain shown, from its start. Entries after “also recorded” stand apart in the source; their conditions may differ.
B1: MxA: full-length human MxA GTPase, 78 kDa, expressed from a transfected plasmid in PC-3M or LOX cells (protein)
chain: MVVSEVDIAKADPAAASHPLLLNGDATVAQKNPGSVAENNLCSQYEEKVRPCIDLIDSLRALGVEQDLALPAIAVIGDQSSGKSSVLEALSGVALPRGSGIVTRCPLVLKLKKLVNEDKWRGKVSYQDYEIEISDASEVEKEINKAQNAIAGEGMGISHELITLEISSRDVPDLTLIDLPGITRVAVGNQPADIGYKIKTLIKKYIQRQETISLVVVPSNVDIATTEALSMAQEVDPEGDRTIGILTKPDLVDKGTEDKVVDVVRNLVFHLKKGYMIVKCRGQQEIQDQLSLSEALQREKIFFENHPYFRDLLEEGKATVPCLAEKLTSELITHICKSLPLLENQIKETHQRITEELQKYGVDIPEDENEKMFFLIDKVNAFNQDITALMQGEETVGEEDIRLFTRLRHEFHKWSTIIENNFQEGHKILSRKIQKFENQYRGRELPGFVNYRTFETIVKQQIKALEEPAVDMLHTVTDMVRLAFTDVSIKNFEEFFNLHRTAKSKIEDIRAEQEREGEKLIRLHFQMEQIVYCQDQVYRGALQKVREKELEEEKKKKSWDFGAFQSSSATDSSMEEIFQHLMAYHQEASKRISSHIPLIIQFFMLQTYGQQLQKAMLQLLQDKDTYSWLLKERSDTSDKRKFLKERLARLTQARRRLAQFPG
B2: T103 mutant MxA: FLAG-tagged MxA with threonine 103 mutated to alanine; the mutation inactivates GTPase activity (protein)
chain: B1 chain with T103A
modifications: left off: small tags and cut ends

Key:
[1] = tested on: PC-3 cells; assay: MxA protein induction, immunohistochemistry and Western blot; type: cell-based, human; details: 1000 IU of IFN-α/mL, 24 hours
Method: (§1) PC-3 and PC-3M test cells also were treated with recombinant IFN-α (Novartis Pharma—Basel, Switzerland) (1000 IU of IFN-α/mL), grown for 24 hours, fixed, permeabilized, and subjected to immunohistochemical analysis using anti-MxA antibody and DAPI nuclear counterstaining to locate individual cells. […] Western blotting with […] using 100 μg cell lysates confirmed IFN-α-induced increase in MxA expression in both cell lines.

[2] = tested on: PC-3M cells; assay: as above; type: cell-based, human; details: 1000 IU of IFN-α/mL, 24 hours
Method: as §1

[3] = tested on: tubulin; assay: Coimmunoprecipitation with anti-α-tubulin and anti-MxA antibodies; type: binding; details: transfected LOX cell lysates
Method: (§2) Immunoprecipitation was performed by known techniques (Bang et al., Proc. Natl. Acad. Sci. USA 91:5330-5334 (1994)). Briefly, cell lysates were obtained and incubated with the indicated antibodies overnight at 4° C. The immunocomplex was immobilized on protein A/G-Sepharose (Santa Cruz Biotechnologies), resolved on SDS-polyacrylamide gels, transferred to nitrocellulose filters, and immunoblotted with the indicated antibodies.
Using the LOX cells stably transfected with the […] MxA construct, as described in the preceding Examples, whole cell lysates were prepared and immunoprecipitated with anti-α-tubulin antibodies, anti-MxA antibodies, and protein A/protein G-coated Sepharose beads alone, and the resulting compositions were subjected to Western blotting with anti-FLAG antibody (Sigma).

[4] = tested on: PC-3M cells; assay: Primary tumor growth assay; type: in vivo, beige/SCID mice; details: 2×10^6 PC3M-MxA cells subcutaneously; β-gal control 29.8±3.4 days
Method: The effect of MxA expression on tumor growth in vivo was first tested using a primary tumor growth assay. 2×10^6 recombinant PC-3M cells expressing […] MxA (PC3M-MxA) or 2×10^6 recombinant PC-3M-β-gal cells (expressing β-gal) were injected subcutaneously into 30 beige/SCID mice (Charles River Laboratories, Wilmington, Mass.), and the time to formation of a 2-cm subcutaneous tumor (as measured using Vernier calipers) was determined by monitoring the mice at least three times weekly for evidence of tumor development, quantification of tumor size, and evidence of tumor/metastasis-associated morbidity. Subcutaneous tumor size was quantified using Vernier Calipers. Criteria for sacrifice included tumor growth to greater than 2.0 cm, ill thrift, anorexia, dehydration, decreased activity and grooming behavior, and dyspnea.

[5] = tested on: PC-3M cells; assay: Experimental hepatic metastasis assay; type: in vivo, beige/SCID mice; details: 2×10^6 PC3M-MxA cells into the spleen; β-gal control 23.3±3.3 days
Method: The in vivo effects of MxA expression on tumor growth and metastatic potential was also tested using an experimental hepatic metastasis assay. Briefly, 2×10^6 cells from the PC3M-MxA cell line and the PC-3M-β-gal cell line were injected into the spleens of beige/SCID mice. Mice were monitored at least three times weekly for evidence of tumor development, quantification of tumor size, and evidence of tumor and/or metastasis-associated morbidity. Animal survival time was determined, and mean survival time was compared between the two treatment groups.

[6] = tested on: PC-3M cells; assay: In vitro motility, migration through 8-μm pore membrane; type: cell-based, human; details: 24 hours
Method: The PC-3M cells of Example 1 were transfected with a pCIneo plasmid (Promega, Madison, Wis.) expressing full-length MxA or a plasmid constructed from pHβ Apr-1 comprising an MxA sequence operably linked to a CMV promoter, and two stable cell lines were selected. PC-3M cells stably transfected with a plasmid expressing β-galactosidase (β-gal) were used as a control. MXA expression was not detected in the PC-3M β-gal cells.
The motility of PC-3M transfectants in vitro was tested by measuring the ability of the cells to migrate through pores in a membrane. Briefly, FALCON cell culture inserts with an 8-μm pore-size PET membrane (Fisher Scientific, Franklin Lake, N.J.) were placed into the wells of a 24-well plate, each well containing 0.5 ml of complete medium (RPMI 1640 with 10% FBS, 1% antimycotic-antibiotic solution, and 500 μg mL^−1 G418). Control and MxA-transfected cells were trypsinized, suspended at 1.5×10^5 cells/ml in complete medium, and 350μl of the cell suspension was added to each insert. Following incubation for 24 hours at 37° C., cells from the upper surface of the membrane were removed by scrubbing with a cotton swab. Cells that had migrated through the insert and adhered to the bottom of the membrane were Wright stained using the CAMCO Quik Stain kit (Fisher Scientific), visualized using a Zeiss Axiophot microscope or Leica DMIRB microscope, and counted.

[7] = tested on: insoluble cytoskeletal matrix; assay: Cytoskeletal extraction and anti-FLAG immunological analysis; type: cell-based; details: transfected LOX cells, anti-FLAG antibody
Method: MxA-LOX cells and T103 MxA-LOX cells were subjected to immunological analysis using known techniques (see Choi et al., J. Biol. Chem., 272:28479-28484 (1997)) with an anti-FLAG antibody after cytoskeletal extraction, which removed all the soluble proteins, leaving only cytoskeleton-associated proteins. Cytoskeletal preparations were prepared by permeabilizing the cells with 1% Triton X-100 in PHEM buffer (60 mM piperazine-N-N′-bis(2-ethane-sulfonic acid) (PIPES; pH 6.9), 25 mM N-2-hydroxyethlypiperazine-N′-2-ethanesulfonic acid (HEPES), 2 mM MgCl2, and 10 mM ethylene glycol-bis(b-aminoethyl ether)-N,N,N′N′-tetraacetic acid (EGTA, pH 6.9)) for 2 minutes, fixing the cells with 3.7% formaldehyde for 10 minutes at room temperature (see Hartwig, J. Cell Biol. 118:1421-1442 (1992)). Fixed cells were incubated with appropriate primary and secondary antibodies and the nuclei counterstained with 4,6-daimidino-2-phenylinodole (DAPI). Cells were visualized with a Zeiss Axiophot microscope and images were captured using an Optronics CCD camera.
To further investigate the relationship between MxA and microtubules, soluble proteins were extracted from the LOX cells, using standard techniques, and the insoluble cytoskeletal matrix was examined for associated proteins.

[8] = tested on: PC-3M cells; assay: Time-lapse video microscopy of cell motility; type: cell-based, human; details: PC-3M-MxA vs PC-3M-β-gal cells, 250 minute recording
Method: Using time-lapse video microscopy, PC-3M cells stably transfected with an MxA construct (as described in Example 2) were observed and compared to control PC-3M-β-gal cells. Specifically, PC-3M-βgal and PC-3M-MxA cells were seeded in 25 cm^2 flasks and cultured for 24 hours. After 24 hours, the flasks were filled with pre-warmed complete medium and cell motility was observed using by phase-contrast microscopy using an Optronics cooled CCD camera mounted on a Leica DMIRB inverted microscope. During observation, the cells were maintained at 37° C. using an ASI 400 Air Stream Incubator (Nevtek—Burnsville, Va.). Time-lapse video microscopy (250 minute recording converted into 1 minute of playing time) was converted into QuickTime movies using Adobe Premier 5.1.

[9] = tested on: actin; assay: Coimmunoprecipitation with actin in PC-3 cells; type: binding, human; details: endogenous MxA in PC-3 cells
Method: as §2

[10] = tested on: LOX cells; assay: In vitro invasion, BIOCOAT Matrigel invasion chamber; type: cell-based, human; details: stably transfected LOX cells vs β-gal control LOX cells

Row | Molecule | level of MxA protein after exposure to IFN-α [1] | level of MxA protein after exposure to IFN-α [2] | association with tubulin by coimmunoprecipitation [3] | time to develop a 2-cm tumor mass [4] | survival [5] | motility, % of the β-gal control cells ([6]; PC-3M stably expressing MxA, lowest level seen) | motility, % lower than the β-gal control cells ([6]; all MxA-expressing PC-3M cells, both cases tested) | association with insoluble cytoskeletal matrix after cytoskeletal extraction [7] | mobility of PC-3M cells by visual observation [8] | co-immunoprecipitation with actin [9] | in vitro invasive activity, % of control cells [10]
1 | IFN-α | increased substantially | became detectable |  |  |  |  |  |  |  |  | 
2 | B1 |  |  | associated with cell microtubules and particularly tubulin; also recorded: detected in the complex with tubulin | 46.8 ± 9.9 days | 54.3 ± 11.2 days | 24.3% | at least 22.4% | remained bound to the matrix | significantly inhibited | did not co-immunoprecipitate | 15.1%
3 | B2 |  |  | did not associate |  |  |  |  | undetectable; also recorded: washed out of the insoluble preparation |  |  | 119%

Source: patent US20040209800A1, “Use of mx gtpases in the prognosis and treatment of cancer” (priority 2001, published 2004)
